How the values were obtained:
Experiment in all cases: ITC; RPN13 Pru in the cell (15.6, 20.57 or 16 μM), RPN2 (940–953) in the syringe; 25°C; 20 mM sodium phosphate, 50 mM NaCl, pH 6.0, with 10 mM βME (reducing) or without (non-reducing); one-site fit
Details in all cases: both partners purified
[1] = biological target: T1, oxidized RPN13 Pru (1–150) after incubation with TXNL1^Trx (UniProt Q16186 1-150, oxidized with 0.05% H2O2, then restored by a 3-fold molar excess of TXNL1 Trx; the residues are not told)
T1 construct: RPN13 Pru domain, residues 1-150; source: E. coli BL21(DE3) pLysS, purified; not shown: His6, N-terminal, cleaved

[2] = biological target: T2, oxidized RPN13 Pru (1–150) (UniProt Q16186 1-150, oxidized with 0.05% H2O2; the residues are not told)
T2 construct: RPN13 Pru domain, residues 1-150; also called oxi RPN13^Pru; oxi-RPN13^Pru; source: E. coli BL21(DE3) pLysS, purified; oxidized with 0.05% H2O2 on ice for 10 min; not shown: His6, N-terminal, cleaved

[3] = biological target: T3, RPN13 Pru (1–150), reduced (UniProt Q16186 1-150)
T3 construct: also called RPN13 (1–150); redu RPN13^Pru; source: E. coli BL21(DE3) pLysS, purified (Talon resin, PreScission cleavage, Superdex 75); not shown: His6, N-terminal, cleaved
T3 sequence (Q16186 1-150): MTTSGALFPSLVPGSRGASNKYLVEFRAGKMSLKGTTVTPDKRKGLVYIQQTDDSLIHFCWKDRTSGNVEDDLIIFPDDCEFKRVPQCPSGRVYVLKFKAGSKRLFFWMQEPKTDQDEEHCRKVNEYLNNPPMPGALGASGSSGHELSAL

T1 sequence (Q16186 1-150): as above
T2 sequence (Q16186 1-150): as above

B1: RPN2 (940–953) (peptide, UniProt Q99460 940-953, looked up)
chain: QEPEPPEPFEYIDD
notes: Eluted from the resin as GST-RPN2 (940–953); also called RPN2 peptide; GST-RPN2 (940–953); source: E. coli BL21(DE3) pLysS, purified (glutathione resin, eluted with reduced glutathione, Superdex 75)
[1]
  Kd: 18.9 ± 5.7 nM
[2]
  Kd: 40 ± 15.3 nM
[3]
  Kd: 12.4 ± 5.29 nM
